Data published in the supplement of paper PMC10567573.
± gives the standard deviation.

Test: protein stability index of a GFP-peptide fusion (GPS, HEK-293T) (PSI 1-6); higher = more stable
[1] = treatment: DMSO, c terminus: a fixed tail appended
[2] = treatment: MLN4924 1 uM, 8 h, c terminus: a fixed tail appended
[3] = treatment: DMSO, c terminus: native
[4] = treatment: MLN4924 1 uM, 8 h, c terminus: native
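Further: 24-mer peptide tiles fused after GFP, lentivirally expressed, FACS-sorted into six equal bins by GFP/DsRed ratio, decoded by Illumina sequencing, PSI is the read-weighted mean bin number.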

| Sequence | protein stability index [1] | protein stability index [2] | protein stability index [3] | protein stability index [4] |
| --- | --- | --- | --- | --- |
| GNLNIHQRTHTGEKPYGCIDCGKA [ZNF649] | 3.96 ± 0.38 | 4.14 ± 0.4 |  |  |
| DFLAVLSDYPSPDISPPIFRRGEK [SLA] | 2.63 ± 0.18 | 2.75 ± 0.51 |  |  |
| KAMAKLSKLASNGTPMGTFAPLWE [FCHO1] | 2.23 ± 0.41 | 2.48 ± 0.12 |  |  |
| YLRKGRGETRICKIYDSPCLPEAE [RAD51] | 3.65 ± 0.22 | 3.83 ± 0.28 |  |  |
| ATYISEVHEHDGHLYLGSFRSPFL [APMAP] | 2.37 ± 0.4 | 1.97 ± 0.14 |  |  |
| LAPTFSNLLLQPTTNPHTSASHRP [SMG5] | 3.55 ± 0.15 | 3.61 ± 0.26 |  |  |
| MAPLQPSTSRAHKLPSRRQPGLLH [FAM189A2] | 3.62 ± 0.18 | 3.72 ± 0.28 |  |  |
| APAKYTVFDAEGYVKPQSCIDIVI [MOSPD3] | 2.83 ± 0.84 | 2.5 ± 1.3 |  |  |
| ARRKSELPQDPHTKKALEAHCRAD [PPP2R5C] | 4.68 ± 0.34 | 5.17 ± 0.12 |  |  |
| HRQETVECLKKFNARRKLKGAILT [CAMK2B] | 2.79 ± 0.24 | 2.98 ± 0.29 |  |  |
| LKEDGMETVPWFPKKISDLDHCAN [TPH1] | 4.11 ± 0.25 | 4.09 ± 0.21 |  |  |
| AQHSLMDGYCMFNHVAVAARYAQQ [HDAC6] | 2.1 ± 0.25 | 1.92 ± 0.39 |  |  |
| VDFQCVKSKSITNLAAAAADIPQD [BTBD10] | 4.79 ± 0.28 | 4.8 ± 0.11 |  |  |
| LNLNYNCISDELLENLCENASTLR [FBXO39] | 3.28 ± 0.16 | 3.29 ± 0.21 |  |  |
| IERGASLEEVNDEGYTPLMEAARE [ANKRD17] | 5.34 ± 0.23 | 5.06 ± 0.21 |  |  |
| NYPYDKSFEHRVRGVRRTASTPTP [CPN1] | 4.05 ± 0.4 | 4.14 ± 0.23 |  |  |
| PSMIATGSVGAAICGLQQDEEVSS [CCND2] | 5.41 ± 0.1 | 5.15 ± 0.27 |  |  |
| RFVQDLVRALEQEKLQGVECGLR [DAPK3] |  |  | 2.92 ± 1.3 | 2.14 ± 0.067 |
| DPLTYKSRLMVVVKMDSSIQPGPF [RHOBTB2] | 2.05 ± 0.53 | 2.08 ± 0.25 |  |  |
| EDHIAHIIELLGSIPRHFALSGKY [SRPK2] | 2.71 ± 0.4 | 2.63 ± 0.58 |  |  |
| DTFHQDNQPSGLIRTYLGRSPLVS [RHOBTB3] | 3.24 ± 0.1 | 3.24 ± 0.16 |  |  |
| TSDVYSSDAAFGGILERYWLSSRA [MYORG] | 2.62 ± 0.11 | 2.47 ± 0.092 |  |  |
| YSAPPGDPLSTNYSLAPNTPINQN [NFE2L1] | 4.48 ± 0.27 | 4.54 ± 0.2 |  |  |

| Sequence | protein stability index [1] | protein stability index [2] | protein stability index [3] | protein stability index [4] |
| --- | --- | --- | --- | --- |
| SHYFKIIEDLRAQIFANTVDNARI [KRT18] | 2.4 ± 0.44 | 2.07 ± 0.24 |  |  |
| CSCLSDILRFIYSGAFQWEELEED [RHOBTB3] | 2.35 ± 0.41 | 1.88 ± 0.34 |  |  |
| GQPSEPEHGPSPGQDTFCQGKADG [CHIT1] | 5.45 ± 0.32 | 5.63 ± 0.23 |  |  |
| FQIYDKEASGYVDRDMFFKICESL [EFHC1] | 2.29 ± 0.15 | 2.5 ± 0.15 |  |  |
| NGGVVQVGELLPCKICGRTFFPVA [ZC2HC1A] | 2.42 ± 0.091 | 2.48 ± 0.47 |  |  |
| GPVAGLDDSGGPTPSSYAPSHPPR [ZBTB22] | 4.92 ± 0.15 | 4.79 ± 0.13 |  |  |
| EEEEEGRFYYSEDDHGDECSYTDL [KCNA4] | 5.4 ± 0.12 | 5.33 ± 0.2 |  |  |
| NIRPADSRWVRDPRYREDPCKQCK [FBXO34] | 4.13 ± 0.36 | 4.28 ± 0.13 |  |  |
| MPLKWKTSSPAIWKFPVPVLKTSR [KLHL13] | 2.46 ± 0.052 | 2.47 ± 0.44 |  |  |
| STLGTLQPPPAPPKKIMPEAHSHY [PPFIA4] | 4.02 ± 0.18 | 4.24 ± 0.1 |  |  |
| TERSPGPRLQELLGPSPQRDPQAV [ZNF263] | 4.79 ± 0.2 | 4.91 ± 0.35 |  |  |
| PQSPPSCRAPPPEARGIRAPPLPD [FCHO1] | 4.92 ± 0.12 | 5.09 ± 0.24 |  |  |
| VLETKWELLQQLDLNNCKNNLEPI [KRT71] | 3.2 ± 0.17 | 3.17 ± 0.29 |  |  |
| KRPYAKELETVDFKDKLEETKGQI [SERPINB5] | 5.12 ± 0.21 | 5.23 ± 0.14 |  |  |
| LTSELDPEKEQEIETIKIIETEDQ [MIA2] | 4.84 ± 0.051 | 5.46 ± 0.33 |  |  |
| MGSAADVRFSLGTTTHAPPGVHRR [PPFIA4] | 4.26 ± 0.3 | 4.51 ± 0.39 |  |  |
| LFVNSHPGIDRPGMLCSFRIPGAW [DCAF4] | 2.38 ± 0.59 | 2.24 ± 0.43 |  |  |
| REPAGRWKEGRPRVEESGSKKEGK [PBXIP1] | 5.34 ± 0.21 | 5.36 ± 0.21 |  |  |
| LKLALDMEIATYRKLLESEECRMS [KRT71] | 2.79 ± 0.46 | 2.88 ± 0.24 |  |  |
| KAGRRMFPACRVSVTGLDPEARYL [TBX6] | 2.36 ± 0.56 | 1.86 ± 0.2 |  |  |
| GLALESSSGLQDVTGPDNGVRESE [NFE2L1] | 5.57 ± 0.36 | 5.53 ± 0.28 |  |  |
| FVQREEQLQFLIRYHRFISFALYL [CDS1] | 2.4 ± 0.68 | 2.68 ± 0.9 |  |  |
| VNEMCPNITRIYNIGKSHQGLKLY [CPXM2] | 2.52 ± 0.35 | 2.57 ± 0.5 |  |  |

| Sequence | protein stability index [1] | protein stability index [2] | protein stability index [3] | protein stability index [4] |
| --- | --- | --- | --- | --- |
| GKRPSQEEDTQSIGPKVQRQSTN [CRY1] |  |  | 5.35 ± 0.28 | 5.45 ± 0.11 |
| VGLGTCSMFSRVGGIIAPFIPSLK [SLC22A15] | 2.1 ± 0.36 | 2.33 ± 0.45 |  |  |
| SHAWEVALGGLQSWRVGVVRVRQD [TRIM35] | 2.47 ± 0.26 | 2.35 ± 0.36 |  |  |
| DFHKPFLGGFRHKVTGVEYHNAGT [IQUB] | 2.88 ± 0.32 | 2.88 ± 0.16 |  |  |
| GNEEEESKIFTTLDPASLAWLTEE [DDIT3] | 5.06 ± 0.2 | 5.09 ± 0.14 |  |  |
| GDIIRLEHKETSRNLHSHYHEAPM [POMT2] | 3.35 ± 0.13 | 3.57 ± 0.12 |  |  |
| QQDFLGLPEELRRLSGLSSVGHNW [C22orf15] | 2.96 ± 0.21 | 3.11 ± 0.14 |  |  |
| SWARPRPDEERPLRRPRPVQRTQS [RASAL3] | 4.46 ± 0.36 | 4.57 ± 0.26 |  |  |
| ARPTEVLAGTQLLYAFFTRTHGDM [TRIB3] | 2.43 ± 0.45 | 2.33 ± 0.38 |  |  |
| RKPCKLMLQVVKILVVTVQLILFG [MCOLN1] | 2.44 ± 0.33 | 2.47 ± 0.32 |  |  |
| FELEDSNEIFTQLYRTLFSVINNG [PDS5B] | 2.15 ± 0.47 | 2.41 ± 0.23 |  |  |
| TREWTQLKPNNLSCDLPEERYRHE [KLHDC10] | 4.61 ± 0.3 | 4.71 ± 0.13 |  |  |
| FVLNRLQYAIISEAWRLVEEGIVS [CRYL1] | 3.17 ± 0.66 | 3.09 ± 0.24 |  |  |
| CTRPVPRNGGKYCEGRRTRFRSCN [ADAMTS4] | 3.79 ± 0.14 | 4.12 ± 0.24 |  |  |
| GSPFGLEEPQWVPDKECRRCMQCD [ZFYVE21] | 4.1 ± 0.29 | 4.07 ± 0.28 |  |  |
| FCISLLRERFMECLMIGRDLVRLL [INTS3] | 2.27 ± 0.28 | 2.29 ± 0.13 |  |  |
| DPRYELPSRKYISTKAIPEKYGAV [ZBED1] | 3.55 ± 0.18 | 3.55 ± 0.19 |  |  |
| PTVHVEVHQRGSSTAKKEDINLSV [TRIP13] | 4.83 ± 0.2 | 4.84 ± 0.29 |  |  |
| FAKKLVDRTWTLCGTPEYLAPEVI [PRKX] | 2.63 ± 0.8 | 2.29 ± 0.19 |  |  |
| SEMWDIFLVRLLMAMAVMLYYSNF [MFSD9] | 3.25 ± 0.38 | 3.36 ± 0.33 |  |  |
| GDFWRMIWEQRSATVVMMTKLEER [PTPRD] | 2.77 ± 0.38 | 2.36 ± 0.18 |  |  |
| EGDPGSKQPRKKRGRYRQYNSEIL [LCOR] | 4.64 ± 0.22 | 4.55 ± 0.28 |  |  |
| LDLKRQYDRVAQLDQLLHYRKKSA [CHGB] | 3.23 ± 0.26 | 3.63 ± 0.51 |  |  |

| Sequence | protein stability index [1] | protein stability index [2] | protein stability index [3] | protein stability index [4] |
| --- | --- | --- | --- | --- |
| EYECRRRMLMKRLDVTVQSFGWSD [FAM98B] | 2.48 ± 0.14 | 2.45 ± 0.11 |  |  |
| PNTAVSVHVSESSDDDEEEEENIG [ACBD3] | 5.5 ± 0.3 | 5.63 ± 0.12 |  |  |
| QSTDGARGKRGYSRGLHAWEISWP [SPSB2] | 2.9 ± 0.14 | 2.75 ± 0.39 |  |  |
| QYIAQFTSQFLSLQCLQALYVDSL [PRAME] | 3.237 ± 0.011 | 3.47 ± 0.23 |  |  |
| ALKLIIRLFLVEDLVDSLKLAVFM [RTN3] | 3.69 ± 0.17 |  |  |  |
| SLIGKGSFGQVVKAYDHQTQELVA [DYRK1B] | 3.56 ± 0.26 | 3.59 ± 0.43 |  |  |
| MSASLNYKSFSKEQQTMDNLEKQL [TRIM55] | 4.71 ± 0.23 | 4.47 ± 0.14 |  |  |
| LIQPINHTTLQCLAARVIVNHRIY [FEM1C] | 2.39 ± 0.3 | 2.38 ± 0.43 |  |  |
| QVKASSPVPATPILQLEECCTHNN [TRIM9] | 4.9 ± 0.21 | 4.923 ± 0.028 |  |  |
| LRQFFKQLPSPPFLPAAGTADCR [CEBPD] |  |  | 1.89 ± 0.67 | 2.16 ± 0.28 |
| EEQALTKAAEGGLSSPEFSELCIW [FAM98B] | 3.72 ± 0.052 | 3.65 ± 0.11 |  |  |
| SAQLQELVCHVMMGNLVMFRKDSV [INTS3] | 3.07 ± 0.38 | 2.83 ± 0.37 |  |  |
| DNIREAFQIYDKEASGYVDRDMFF [EFHC1] | 3.5 ± 0.29 | 3.42 ± 0.18 |  |  |
| VDGDQSKILISGLEPSTPYRFLLY [TNXB] | 2.41 ± 0.45 | 2.21 ± 0.48 |  |  |
| EKGEKGDRAGDASKDILLGPWDMV [SCARA5] | 4.41 ± 0.37 | 4.71 ± 0.36 |  |  |
| KESRAQTLQNGRRHIHHLGNQLQL [BRF1] | 3.55 ± 0.15 | 3.63 ± 0.31 |  |  |
| QPPPPPPPPPMQPTVPSAATSQPT [CCDC6] | 5.11 ± 0.16 | 5.29 ± 0.062 |  |  |
| LEAEVKDTTRVENLIKSENYGKIL [R3HDM1] | 4.3 ± 0.59 | 4.43 ± 0.42 |  |  |
| RDDLEALGHMFMYFLRGSLPWQGL [CSNK1G3] | 3.19 ± 0.37 | 2.93 ± 0.15 |  |  |
| AVKGSLGSDLGGPLPTDPMLGLAL [TSPAN10] | 3.16 ± 0.17 | 3.06 ± 0.12 |  |  |
